Test results as given in patent US6458590 (US Dept. of Health and Human Services, dated 2002).

B1: human osteopontin (purified hOPN) (ligand)
chain: not shown
modifications: radioiodinated (125I, Chloramine-T method) when used as tracer; labelled residues not stated; the natural protein is described as a glycosylated phosphoprotein

What was measured:
[1] = molecular target: T1, αvβ3 integrin on human coronary artery smooth muscle cells (CASMCs) (human, UniProt P06756 31-1048; P05106 27-788); experiment: 125I-OPN binding to sub-confluent CASMCs, displaced by unlabeled OPN, 37 °C 3 h; Scatchard analysis (LIGAND program)
T1 construct: whole, on cells; Endogenous receptor on sub-confluent cultured human CASMCs (Clonetics); It was identified as the ~300 kD crosslinked band by immunoprecipitation with an αvβ3 integrin antibody; also called approximately 300 kD cell surface protein on CASMCs
Description: The radioactivity was measured by gamma counter and the specific binding was calculated by subtracting the non-specific binding from the total binding.

[2] = molecular target: T1, αvβ3 integrin on human coronary artery …; experiment: competition with 125I-OPN in affinity crosslinking on CASMCs; GRGDS at 1 µM
Description: After washing, the cells were incubated with 0.20 mM DSS in 1 ml HBSS, pH 7.6 at 37° C. for 30 min. The cells were scraped, collected by centrifugation and lysed in 40 µl of 1% Triton X-100 solution containing 1 mM PMSF, 20 µg/ml leupeptin and 2 mM EDTA.

T1 sequence (P06756 31-1048, chain 1 of 2): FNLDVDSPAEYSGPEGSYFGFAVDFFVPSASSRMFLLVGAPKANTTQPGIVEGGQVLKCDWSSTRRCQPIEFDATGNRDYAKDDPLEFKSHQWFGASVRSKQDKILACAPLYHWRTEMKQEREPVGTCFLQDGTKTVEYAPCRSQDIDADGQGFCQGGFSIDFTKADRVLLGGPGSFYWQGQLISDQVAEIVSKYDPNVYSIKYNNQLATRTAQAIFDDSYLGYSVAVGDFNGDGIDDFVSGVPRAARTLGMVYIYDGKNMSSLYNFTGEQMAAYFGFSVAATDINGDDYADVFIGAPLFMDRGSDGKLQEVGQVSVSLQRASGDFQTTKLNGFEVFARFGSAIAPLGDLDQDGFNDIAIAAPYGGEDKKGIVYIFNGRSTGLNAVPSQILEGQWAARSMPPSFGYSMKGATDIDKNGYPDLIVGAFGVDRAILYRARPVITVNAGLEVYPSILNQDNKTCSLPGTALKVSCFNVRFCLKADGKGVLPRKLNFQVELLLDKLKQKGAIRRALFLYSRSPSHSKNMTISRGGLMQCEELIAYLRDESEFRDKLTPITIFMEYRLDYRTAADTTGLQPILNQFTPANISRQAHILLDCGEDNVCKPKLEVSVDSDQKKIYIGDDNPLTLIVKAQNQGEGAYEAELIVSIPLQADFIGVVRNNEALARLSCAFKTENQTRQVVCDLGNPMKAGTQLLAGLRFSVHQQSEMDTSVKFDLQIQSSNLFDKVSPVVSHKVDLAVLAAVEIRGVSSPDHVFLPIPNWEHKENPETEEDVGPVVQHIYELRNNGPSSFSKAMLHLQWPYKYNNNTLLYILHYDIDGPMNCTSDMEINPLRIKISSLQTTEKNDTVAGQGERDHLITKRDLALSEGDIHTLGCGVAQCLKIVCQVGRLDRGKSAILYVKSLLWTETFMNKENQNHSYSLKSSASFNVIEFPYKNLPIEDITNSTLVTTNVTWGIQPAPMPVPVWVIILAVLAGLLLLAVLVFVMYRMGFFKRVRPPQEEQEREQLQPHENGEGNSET
T1 sequence (P05106 27-788, chain 2 of 2): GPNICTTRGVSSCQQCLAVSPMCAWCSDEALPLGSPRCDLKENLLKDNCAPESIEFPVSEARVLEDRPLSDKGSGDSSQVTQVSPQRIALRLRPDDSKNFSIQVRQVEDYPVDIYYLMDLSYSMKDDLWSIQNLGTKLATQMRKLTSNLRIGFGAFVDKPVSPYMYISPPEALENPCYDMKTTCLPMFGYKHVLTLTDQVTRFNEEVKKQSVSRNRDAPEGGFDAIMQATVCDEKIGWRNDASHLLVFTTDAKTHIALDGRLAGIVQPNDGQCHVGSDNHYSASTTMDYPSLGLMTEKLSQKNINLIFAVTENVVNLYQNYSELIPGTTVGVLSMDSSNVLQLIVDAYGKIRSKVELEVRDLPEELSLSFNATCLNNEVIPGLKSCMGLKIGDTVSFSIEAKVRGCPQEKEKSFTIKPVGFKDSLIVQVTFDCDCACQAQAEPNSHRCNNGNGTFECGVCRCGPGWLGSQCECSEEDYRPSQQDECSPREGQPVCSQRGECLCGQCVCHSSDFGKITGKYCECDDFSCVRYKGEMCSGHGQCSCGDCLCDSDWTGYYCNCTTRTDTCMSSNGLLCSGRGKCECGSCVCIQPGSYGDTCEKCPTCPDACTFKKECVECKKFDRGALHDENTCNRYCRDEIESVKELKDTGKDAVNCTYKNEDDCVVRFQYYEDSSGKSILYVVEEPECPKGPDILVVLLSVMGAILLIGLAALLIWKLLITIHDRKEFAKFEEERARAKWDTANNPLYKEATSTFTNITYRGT

Binder	Kd [1] [nM]	binding result [2]
B1	1	–
GRGDS (also called GRGDS peptide) [Gly-Arg-Gly-Asp-Ser (GRGDS) oligopeptide]	–	binds
